Data on 59 molecules can be found in US20170044545, “APTAMER FOR BONDING TO AUTOTAXIN AND INHIBITING BIOLOGICAL ACTIVITY OF AUTOTAXIN, AND USE FOR SAME” (RIBOMIC INC., published 2017).

This data set concerns the target Autotaxin (ENPP2, NPP2) (Homo sapiens, UniProt Q13822 Q13822:36-863). The experiment in a line: inhibition.

As for UCUGAGGGAAACAGGUUUUGCUCCUCGGA (mixed, as 16(4) with dT1 dC2 dT3) [SEQ 16(10)], 21 nM corresponded to half-maximal inhibition (IC50).

For UCUGAGGGAAACAGGUUUUGCUCCUCGGA (mixed, as 16(32) with PS at A10) [SEQ 16(36)], the IC50 was 0.3 nM.

The molecule UGAGGGAAACAGGUUUUGCUCCUCG (ssRNA, 2'-F pyrimidines, 2'-OH purines) [SEQ 17] gave an IC50 of 37 nM.

GAGGGAAACAGGUUUUGCUCCUC (ssRNA, 2'-F pyrimidines, 2'-OH purines) [SEQ 20] displayed an IC50 of 100 nM.

B1: SEQ 16(2) (ssRNA)
RNA: UCUGAGGGAAACAGGUUUUGCUCCUCGGA
modifications: 2'-F all pyrimidines and G8; 2'-OMe G4 A5 G6 G7 A9 A11 A13 G20 G27 G28 A29; 2'-OH A10 G14 G15
B1 registered an IC50 of 22 nM. Compared with the last molecule, the IC50 is about 4.5-fold lower.

The molecule UCUGAGGGAAACAGGUUUUGCUCCUCGGA (mixed, as 16(47) with PS at A10 and 2'-OMe C2 U3) [SEQ 16(55)] returned an IC50 of 0.4 nM.

For the molecule UAGAGAUGGAAACAGGUUUUGCUCAUCUCA (ssRNA, 2'-F pyrimidines, 2'-OH purines) [SEQ 50], the IC50 stood at 21 nM. Compared with the last molecule, the IC50 is about 52-fold higher.

Turning to UGGGAAGGAAACAGGUUUUGCUCUUCACC (ssRNA, 2'-F pyrimidines, 2'-OH purines) [SEQ 53], it took 30 nM to reach half-maximal inhibition (IC50).

The molecule CUGAGGGAAACAGGUUUUGCUCCUCGG (ssRNA, 2'-F pyrimidines, 2'-OH purines) [SEQ 18] showed an IC50 of 34 nM.

UCUGAGGGAAACAGGUUUUGCUCCUCGGA (mixed, as 16(21) with dT3) [SEQ 16(42)] displayed an IC50 of 1 nM.

As for UCUGAGGGAAACAGGUUUUGCUCCUCGGA (ssRNA, as 16(4) with 5' 40 kDa PEG (GL2-400TS)-ssH linker instead of 5' idT) [SEQ 16(8)], half-maximal inhibition (IC50) was put at 42 nM.

UCUGAGGGUAACAGGUUAUGCUCCUCGGA (ssRNA, 2'-F pyrimidines, 2'-OH purines) [SEQ 26]: the half-maximal inhibitory concentration (IC50) amounted to 510 nM.

The molecule UCUGAGGGAAACAGGUUUUGCUCCUCGGA (mixed, as 16(45) with PS at A10) [SEQ 16(46)] had an IC50 of 2 nM.

UCUGAGGGAAACAGGUUUUGCUCCUCGGA (ssRNA, as 16(1) + 5' and 3' idT) [SEQ 16(3)] showed an IC50 of 10 nM.

For UCUGAGGGAAACAGGUUUUGCUCCUCGGA (mixed, as 16(4) with dG14 dG15) [SEQ 16(6)], the IC50 was determined as 5.9 nM.

With CCGCUCUGAGGGAAACAGGUUUUGCUCCUCGGAGCGG (ssRNA, 2'-F pyrimidines, 2'-OH purines) [SEQ 15], the IC50 worked out at 7 nM.

Consider UCUGAGGGAAACAGGUUUUGCUCCUCGGA (mixed, as 16(21) with 5' 80 kDa PEG (GL2-800GS2)-ssH linker instead of 5' idT) [SEQ 16(43)], for which the IC50 was 3 nM.

UCUGGGGGAAACAGGUUUUGCUCCCCGGA (ssRNA, 2'-F pyrimidines, 2'-OH purines) [SEQ 44] had an IC50 of 38 nM.

Molecule UCUGAGGGAAACAGGUUUUGCUCCUCGGA (mixed, as 16(32) with 5' 40 kDa PEG (GL2-400GS2)-ssH linker instead of 5' idT) [SEQ 16(34)] registered an IC50 of 4.2 nM. Against the preceding molecule, the IC50 is about 9-fold lower.

As for UUUGAAGGAAACAGGUUUUGCUCUUCGAG (ssRNA, 2'-F pyrimidines, 2'-OH purines) [SEQ 51], it took 85 nM to reach half-maximal inhibition (IC50).

As for ACUGCUUGAAACAGGUUUUGCUGAGCAGU (ssRNA, 2'-F pyrimidines, 2'-OH purines) [SEQ 24], the IC50 came out at 33 nM.

As for UCUGAGGGAAACAGGUCUUGCUCCUCGGA (ssRNA, 2'-F pyrimidines, 2'-OH purines) [SEQ 41], inhibition was half-maximal at 43 nM (IC50).

In the case of UUCGAGGGAAACAGGUUUUGCUCCUCAAA (ssRNA, 2'-F pyrimidines, 2'-OH purines) [SEQ 52], the IC50 is 59 nM.

In turn, UCUGAGGGAAACAGGUUUUGCUCCUCGGA (mixed, as 16(4) with dG14) [SEQ 16(5)] returned an IC50 of 6.7 nM.

With UCUGAGGGAAACAGGUUUCGCUCCUCGGA (ssRNA, 2'-F pyrimidines, 2'-OH purines) [SEQ 32], the IC50 was found to be 55 nM.

In turn, UCUGAGGGAAACAGGUUUUGCUCCUCGAA (ssRNA, 2'-F pyrimidines, 2'-OH purines) [SEQ 45] yielded an IC50 of 29 nM.

Regarding UCUGAGGGAAACAGGUUUUGCUCCUCGGA (mixed, as 16(21) with dC23 dC24 dC26) [SEQ 16(33)], the IC50 amounted to 0.6 nM.

Molecule UCUGAGGGAGACAGGUUUUGCUCCUCGGA (ssRNA, 2'-F pyrimidines, 2'-OH purines) [SEQ 34] yielded an IC50 of 340 nM.

In turn, UCCGAGGGAAACAGGUUUUGCUCCUCGCA (ssRNA, 2'-F pyrimidines, 2'-OH purines) [SEQ 47] registered an IC50 of 66 nM.

UCUGAGGGAAACAGGUUUUGCUCCUCGGA (mixed, as 16(4) with dC23 dC24) [SEQ 16(12)] showed an IC50 of 37 nM.

In turn, UCUGAGGGAAACAGGUUUUGCUCCUCGGA (mixed, as 16(47) with dA10 and phosphorodithioate at A10) [SEQ 16(68)] came in with an IC50 of 1.7 nM.

B2: SEQ 8 aptamer (ssRNA)
RNA: GGGUGGCAACAGGACAUGGAACGCGCCCCAACUGCUUGAAACAGGUUUUGCUGAGCAGUGAUGUGAGAUGCGUCUUCGUAC
modifications: 2'-F pyrimidines, 2'-OH purines
With B2, the IC50 was 49 nM.

Consider UCUGAGGGAAACAGGUUUUGCUCCUCGGA (mixed, as 16(21) with dC2) [SEQ 16(41)], for which 2.2 nM corresponded to half-maximal inhibition (IC50).

UCCGAGGGAAACAGGUUUUGCUCCUCGGA (ssRNA, 2'-F pyrimidines, 2'-OH purines) [SEQ 29] yielded an IC50 of 53 nM.

In turn, UCUGAGGGGAACAGGUUUUGCUCCUCGGA (ssRNA, 2'-F pyrimidines, 2'-OH purines) [SEQ 33] came in with an IC50 of 690 nM.

In the case of UCUGAGGGAAACAGGUUUUGCUCCUCGGA (mixed, as 16(49) with 2'-OMe C2 U3 U22 C24 U25) [SEQ 16(65)], half-maximal inhibition (IC50) required 0.3 nM.

UCUGAGGGAAACAGGCUUUGCUCCUCGGA (ssRNA, 2'-F pyrimidines, 2'-OH purines) [SEQ 31] came in with an IC50 of 130 nM.

Molecule UCUGAGGGAAACAGGUUUUGCUCCUCGGA (mixed, as 16(38) with 5' 40 kDa PEG (GL2-400GS2)-ssH linker instead of 5' idT) [SEQ 16(39)] gave an IC50 of 3.8 nM.

In the case of UCUGAGGGAAACAGGUUUUGCUCCUCGGA (ssRNA, as 16(2) + 5' and 3' idT (G14 printed lower case, probably typo)) [SEQ 16(4)], the IC50 came out at 17 nM.

UCUGAGGGAAACAGGUUUUGCUCCUCGGA (ssRNA, 2'-F all pyrimidines; 2'-OMe G4 A5 G6 G7 G27 G28 A29; other purines 2'-OH) [SEQ 16(1)] yielded an IC50 of 17 nM.

For UCUGAGGGUAACAGGUUUUGCUCCUCGGA (ssRNA, 2'-F pyrimidines, 2'-OH purines) [SEQ 40], the IC50 was 49 nM. Compared with the last molecule, the IC50 is about 2.9-fold higher.

On to UCUGAGGGAAACAGGUUUUGCUCCUCGGA (mixed, as 16(21) with dC23 dC26) [SEQ 16(38)], for which the IC50 came out at 1.3 nM. This IC50 is about 38-fold lower than that of the molecule before.

With UCUGAGGGAAACAGGUUUUGCUCCUCGGA (ssRNA, as 16(4) with PS at A10) [SEQ 16(7)], the 50% inhibitory concentration (IC50) came out at 7.3 nM. Against the preceding molecule, the IC50 is about 5.6-fold higher.

For the molecule UCUGAGGGAAACAGGUUUUGCUCCUCGGA (ssRNA, 2'-F pyrimidines, 2'-OH purines) [SEQ 16], the IC50 came to 12 nM. Compared with the last molecule, the IC50 is about 1.6-fold higher.

For the molecule UCUGAGGGAAACAGGUUUUGCUCCUCGGA (mixed, as 16(33) with 5' 40 kDa PEG (GL2-400GS2)-ssH linker instead of 5' idT) [SEQ 16(35)], 3 nM corresponded to half-maximal inhibition (IC50).

CGAGGGAAACAGGUUUUGCUCCUCG (ssRNA, 2'-F pyrimidines, 2'-OH purines) [SEQ 19]: 36 nM corresponded to half-maximal inhibition (IC50).

UCUGAGGGAAACAGGUUUUGCUCCUCGGA (mixed, as 16(48) with PS at A10) [SEQ 16(49)] showed a half-inhibitory concentration (IC50) of 1.6 nM.

Turning to UCUGAGGGAAACAGGUUUUGCUCCUCGGA (mixed, as 16(21) with dT1) [SEQ 16(40)], the IC50 amounted to 0.9 nM. This IC50 lies about 1.8-fold lower than the previous one.

UCUGAGGGAAACAGGUUUUGCUCCUCGGA (mixed, as 16(4) with dT22) [SEQ 16(13)] yielded an IC50 of 52 nM.

Molecule UCUGAGGGAAACAGGUUUUGCUCCUCGGA (ssRNA, as 16(4) with 5' 80 kDa PEG (GL2-800TS)-ssH linker instead of 5' idT) [SEQ 16(9)] displayed an IC50 of 32 nM.

Consider UCUGAGGGAAACAGGUUUUGCUCCUCGGA (mixed, as 16(21) with dT1 dC23 dC26) [SEQ 16(47)], for which the IC50 turned out to be 2.4 nM.

In turn, AGGGAAACAGGUUUUGCUCCU (ssRNA, 2'-F pyrimidines, 2'-OH purines) [SEQ 21] registered an IC50 of 710 nM. Compared with the last molecule, the IC50 is about 300-fold higher.

UCUGAGGGAAACAGGUUUUGCUCCUCAGA (ssRNA, 2'-F pyrimidines, 2'-OH purines) [SEQ 30] came in with a half-maximal inhibitory concentration (IC50) of 50 nM.

On to UCUGAGGGAAACAGGUUUUGCUCCUCGGA (mixed, as 16(47) with 5' 80 kDa PEG (GL2-800GS2)-ssH linker instead of 5' idT) [SEQ 16(48)], for which half-maximal inhibition (IC50) required 7.8 nM.

As for UCUGAGGGAAACAGGUUUUGCUCCUCGGA (mixed, as 16(21) with 5' 80 kDa PEG (GL4-800GS2)-ssH linker instead of 5' idT) [SEQ 16(45)], inhibition was half-maximal at 13 nM (IC50).

For UCUGAGGGAAACAGGUUUUGCUCCUCGGA (mixed, as 16(33) with PS at A10) [SEQ 16(37)], the IC50 was determined as 0.25 nM.

UCUGAGGGAAACAGGUUUUGCUCCUCGGA (mixed, as 16(43) with PS at A10) [SEQ 16(44)] returned an IC50 of 2.8 nM. This IC50 lies about 11-fold higher than the previous one.

For the molecule UCUGAGGGAAACAGGUUUUGCUCCUCGGA (mixed, as 16(4) with dT25 dC26) [SEQ 16(11)], it took 27 nM to reach half-maximal inhibition (IC50).

B3: SEQ 14 (ssRNA)
RNA: GGGCUAAACGCUCUGAGGGAAACAGGUUUUGCUCCUCGGAGCGUGGACGCCC
modifications: 2'-F pyrimidines, 2'-OH purines
Consider B3, for which the IC50 was found to be 26 nM.
